These results are taken from publication PMC7538601, “Low-Zone IL-2 Signaling: Fusion Proteins Containing Linked CD25 and IL-2 Domains Sustain Tolerogenic Vaccination in vivo and Promote Dominance of FOXP3^+ Tregs in vitro” (Frontiers in Immunology, 2020).

For series [1], the target named is T1, Full length murine CD25 on HEK cells (mouse, UniProt P01590 22-268).
T1 sequence (looked up): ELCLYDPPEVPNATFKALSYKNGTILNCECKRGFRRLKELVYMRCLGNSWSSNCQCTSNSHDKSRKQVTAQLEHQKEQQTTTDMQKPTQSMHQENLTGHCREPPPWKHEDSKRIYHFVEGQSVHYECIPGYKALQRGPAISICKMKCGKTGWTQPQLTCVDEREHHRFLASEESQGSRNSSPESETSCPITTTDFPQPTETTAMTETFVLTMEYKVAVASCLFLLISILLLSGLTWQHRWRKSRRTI
As to the kind of experiment: cell-based or functional assay.

Series [2] deals with the molecule itself. As to the kind of experiment: SEC; Superdex 200 Increase 10/300 GL, 0.5 ml/min, 10 mM HEPES pH 7.3, 140 mM NaCl; 500 ul sample at 0.5 mg/ml; apparent molecular weights against Bio-Rad gel filtration standard. (In general: Size exclusion chromatography separates by hydrodynamic size, large species first.)

B1: CD25-IL2 fusion protein (other, mouse)
chain: ELCLYDPPEVPNATFKALSYKNGTILNCECKRGFRRLKELVYMRCLGNSWSSNCQCTSNSHDKSRKQVTAQLEHQKEQQTTTDMQKPTQSMHQENLTGHCREPPPWKHEDSKRIYHFVEGQSVHYECIPGYKALQRGPAISICKMKCGKTGWTQPQLTCVDEREHHRFLASEESQGSRNSSPESETSCPITTTDFPQPTETTAMTETFVLTMEYKGGGGSTRGGGGSTGGGGSGGGGSSAPTSSSTSSSTAEAQQQQQQQQQQQQHLEQLLMDLQELLSRMENYRNLKLPRMLTFKFYLPKQATELKDLQCLEDELGPLRHVLDLTQSKSFQLEDAENFISNIRVTVVKLKGSDNTFECQFDDESATVVDFLRRWIAFCQSIISTSPQ
notes: signal peptide in the construct; murine soluble CD25 (IL-2 receptor alpha chain), aa1-236 of NP_032393; 23-aa flexible linker; murine IL-2, aa20-169 of NP_032392; Glycosylated; about 70 kDa on SDS-PAGE, reducing and non-reducing; By SEC it runs as higher order multimers; also called CD25-IL2 FP; FP; source: HEK293F, stably transfected (pCMV), expression supernatant, purified (Ni-NTA); not shown: …
For B1, in series [1], the “proliferation ([3H]thymidine) of the IL-2 dependent mouse T cell line SJL-PLP.1; potency against mouse IL-2” value is ~32 fold less potent than IL-2. The binding result in series [2] is listed as “binds”.

B2: IL2-CD25 fusion protein (other, mouse)
chain: APTSSSTSSSTAEAQQQQQQQQQQQQHLEQLLMDLQELLSRMENYRNLKLPRMLTFKFYLPKQATELKDLQCLEDELGPLRHVLDLTQSKSFQLEDAENFISNIRVTVVKLKGSDNTFECQFDDESATVVDFLRRWIAFCQSIISTSPQGGGGSTRGGGGSTGGGGSGGGGSELCLYDPPEVPNATFKALSYKNGTILNCECKRGFRRLKELVYMRCLGNSWSSNCQCTSNSHDKSRKQVTAQLEHQKEQQTTTDMQKPTQSMHQENLTGHCREPPPWKHEDSKRIYHFVEGQSVHYECIPGYKALQRGPAISICKMKCGKTGWTQPQLTCVDEREHHRFLASEESQGSRNSSPESETSCPITTTDFPQPTETTAMTETFVLTMEYK
notes: signal peptide in the construct; murine IL-2, aa1-169 of NP_032392; 23-aa flexible linker; murine soluble CD25 (IL-2 receptor alpha chain), aa22-236 of NP_032393; Glycosylated; about 70 kDa on SDS-PAGE, reducing and non-reducing; By SEC it runs as higher order multimers; also called IL2-CD25 FP; FP; source: HEK293F, stably transfected (pIRES AcGFP1), expression supernatant, purified (Ni-NTA); not …
Consider B2, for which the “proliferation ([3H]thymidine) of the IL-2 dependent mouse T cell line SJL-PLP.1; potency against mouse IL-2” value in series [1] is ~320 fold less potent than IL-2. The binding result in series [2] is recorded as “binds”.
